Assay [1] concerns the target microtubules grown from purified bovine brain tubulin (bovine) (UniProt Q6B856). Nature of the assay: optical trap rupture force assay; kinetochores purified in the presence of benzonase, on anti-penta-His beads (via Dsn1-6His-3M3DK), attached to the growing tips of coverslip-anchored microtubules; force ramp 0.25 pN/s until detachment; BRB80, 1 mM GTP, 23 °C.
For assay [2] the target is unchanged. Nature of the assay: optical trap rupture force assay; untreated purified kinetochores on anti-penta-His beads (via Dsn1-6His-3M3DK), attached to the growing tips of coverslip-anchored microtubules; force ramp 0.25 pN/s until detachment; BRB80, 1 mM GTP, 23 °C.

Sequence of UniProt Q6B856 (Q6B856 whole entry, looked up): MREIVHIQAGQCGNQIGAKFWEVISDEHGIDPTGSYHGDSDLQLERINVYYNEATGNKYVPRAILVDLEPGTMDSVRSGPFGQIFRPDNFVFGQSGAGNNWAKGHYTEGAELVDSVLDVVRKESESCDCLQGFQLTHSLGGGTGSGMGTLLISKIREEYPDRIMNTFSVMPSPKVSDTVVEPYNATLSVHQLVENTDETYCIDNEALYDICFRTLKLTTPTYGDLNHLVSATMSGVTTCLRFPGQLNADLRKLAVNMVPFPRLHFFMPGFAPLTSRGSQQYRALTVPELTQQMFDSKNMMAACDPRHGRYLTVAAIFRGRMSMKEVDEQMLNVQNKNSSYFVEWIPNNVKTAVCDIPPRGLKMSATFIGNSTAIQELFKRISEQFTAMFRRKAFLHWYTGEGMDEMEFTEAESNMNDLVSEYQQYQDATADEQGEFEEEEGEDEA

In the case of “native K. marxianus kinetochore particles purified via Dsn1-6His-3M3DK (from UniProt A0ABX6F0Z3 1-547) (complex)”, the median rupture force in assay [1] worked out at 6.4 pN; in assay [2] it was 7.5 pN.
As for “native S. cerevisiae kinetochore particles purified via Dsn1-6xHis-3xM3DK (from UniProt P40568 1-576) (complex)”, the median rupture force in assay [2] amounted to 7.2.
